Measurements reported in publication doi:10.1101/2021.02.24.432666 (bioRxiv, 2021).
Where “and” joins values, the source holds several entries; their conditions need not be identical. Equal entries are not always repeated. Where two headings read alike, the source gives them in different places.

B1: yeast TRiC subunit CCT3 (natural protein, UniProt P39077 1-534, looked up)
chain: MQAPVVFMNASQERTTGRQAQISNITAAKAVADVIRTCLGPKAMLKMLLDPMGGLVLTNDGHAILREIDVAHPAAKSMLELSRTQDEEVGDGTTTVIILAGEILAQCAPYLIEKNIHPVIIIQALKKALTDALEVIKQVSKPVDVENDAAMKKLIQASIGTKYVIHWSEKMCELALDAVKTVRKDLGQTVEGEPNFEIDIKRYVRVEKIPGGDVLDSRVLKGVLLNKDVVHPKMSRHIENPRVVLLDCPLEYKKGESQTNIEIEKEEDWNRILQIEEEQVQLMCEQILAVRPTLVITEKGVSDLAQHYLLKGGCSVLRRVKKSDNNRIARVTGATIVNRVEDLKESDVGTNCGLFKVEMIGDEYFSFLDNCKEPKACTIMLRGGSKDILNEIDRNLQDAMAVARNVMLSPSLSPGGGATEMAVSVKLAEKAKQLEGIQQWPYQAVADAMECIPRTLIQNAGGDPIRLLSQLRAKHAQGNFTTGIDGDKGKIVDMVSYGIWEPEVIKQQSVKTAIESACLLLRVDDIVSGVRKQE
B2: yeast TRiC subunit CCT2 (natural protein)
chain: MSVQIFGDQVTEERAENARLSAFVGAIAVGDLVKSTLGPKGMDKLLQSASSNTCMVTNDGATILKSIPLDNPAAKVLVNISKVQDDEVGDGTTSVTVLSAELLREAEKLIDQSKIHPQTIIEGYRLASAAALDALTKAAVDNSHDKTMFREDLIHIAKTTLSSKILSQDKDHFAELATNAILRLKGSTNLEHIQIIKILGGKLSDSFLDEGFILAKKFGNNQPKRIENAKILIANTTLDTDKVKIFGTKFKVDSTAKLAQLEKAEREKMKNKIAKISKFGINTFINRQLIYDYPEQLFTDLGINSIEHADFEGVERLALVTGGEVVSTFDEPSKCKLGECDVIEEIMLGEQPFLKFSGCKAGEACTIVLRGATDQTLDEAERSLHDALSVLSQTTKETRTVLGGGCAEMVMSKAVDTEAQNIDGKKSLAVEAFARALRQLPTILADNAGFDSSELVSKLRSSIYNGISTSGLDLNNGTIADMRQLGIVESYKLKRAVVSSASEAAEVLLRVDNIIRARPRTANRQHM
B3: yeast TRiC subunit CCT7 (natural protein, UniProt P42943 1-550, looked up)
chain: MNFGSQTPTIVVLKEGTDASQGKGQIISNINACVAVQEALKPTLGPLGSDILIVTSNQKTTISNDGATILKLLDVVHPAAKTLVDISRAQDAEVGDGTTSVTILAGELMKEAKPFLEEGISSHLIMKGYRKAVSLAVEKINELAVDITSEKSSGRELLERCARTAMSSKLIHNNADFFVKMCVDAVLSLDRNDLDDKLIGIKKIPGGAMEESLFINGVAFKKTFSYAGFEQQPKKFNNPKILSLNVELELKAEKDNAEVRVEHVEDYQAIVDAEWQLIFEKLRQVEETGANIVLSKLPIGDLATQFFADRNIFCAGRVSADDMNRVIQAVGGSIQSTTSDIKPEHLGTCALFEEMQIGSERYNLFQGCPQAKTCTLLLRGGAEQVIAEVERSLHDAIMIVKRALQNKLIVAGGGATEMEVSKCLRDYSKTIAGKQQMIINAFAKALEVIPRQLCENAGFDAIEILNKLRLAHSKGEKWYGVVFETENIGDNFAKFVWEPALVKINALNSATEATNLILSVDETITNKGSESANAGMMPPQGAGRGRGMPM
B4: yeast TRiC subunit CCT4 (natural protein, UniProt P39078 1-528, looked up)
chain: MSAKVPSNATFKNKEKPQEVRKANIIAARSVADAIRTSLGPKGMDKMIKTSRGEIIISNDGHTILKQMAILHPVARMLVEVSAAQDSEAGDGTTSVVILTGALLGAAERLLNKGIHPTIIADSFQSAAKRSVDILLEMCHKVSLSDREQLVRAASTSLSSKIVSQYSSFLAPLAVDSVLKISDENSKNVDLNDIRLVKKVGGTIDDTEMIDGVVLTQTAIKSAGGPTRKEKAKIGLIQFQISPPKPDTENNIIVNDYRQMDKILKEERAYLLNICKKIKKAKCNVLLIQKSILRDAVNDLALHFLSKLNIMVVKDIEREEIEFLSKGLGCKPIADIELFTEDRLGSADLVEEIDSDGSKIVRVTGIRNNNARPTVSVVIRGANNMIIDETERSLHDALCVIRCLVKERGLIAGGGAPEIEISRRLSKEARSMEGVQAFIWQEFASALEVIPTTLAENAGLNSIKVVTELRSKHENGELNDGISVRRSGTTNTYEEHILQPVLVSTSAITLASECVKSILRIDDIAFSR
B5: yeast CCT5 with the N-terminal 24 amino acids truncated (CCT5^ΔNT) (domain or fragment, UniProt P40413 25-562, looked up)
chain: MGRPFIIVKDQGNKKRQHGLEAKKSHILAARSVASIIKTSLGPRGLDKILISPDGEITITNDGATILSQMELDNEIAKLLVQLSKSQDDEIGDGTTGVVVLASALLDQALELIQKGIHPIKIANGFDEAAKLAISKLEETCDDISASNDELFRDFLLRAAKTSLGSKIVSKDHDRFAEMAVEAVINVMDKDRKDVDFDLIKMQGRVGGSISDSKLINGVILDKDFSHPQMPKCVLPKEGSDGVKLAILTCPFEPPKPKTKHKLDISSVEEYQKLQTYEQDKFKEMIDDVKKAGADVVICQWGFDDEANHLLLQNDLPAVRWVGGQELEHIAISTNGRIVPRFQDLSKDKLGTCSRIYEQEFGTTKDRMLIIEQSKETKTVTCFVRGSNKMIVDEAERALHDSLCVVRNLVKDSRVVYGGGAAEVTMSLAVSEEADKQRGIDQYAFRGFAQALDTIPMTLAENSGLDPIGTLSTLKSKQLKEKISNIGVDCLGYGSNDMKELFVVDPFIGKKQQILLATQLCRMILKIDNVIISGKDEY
B6: yeast TRiC subunit CCT6 (natural protein)
chain: not shown
B7: yeast TRiC subunit CCT8 (natural protein, UniProt P47079 1-568, looked up)
chain: MSLRLPQNPNAGLFKQGYNSYSNADGQIIKSIAAIRELHQMCLTSMGPCGRNKIIVNHLGKIIITNDAATMLRELDIVHPAVKVLVMATEQQKIDMGDGTNLVMILAGELLNVSEKLISMGLSAVEIIQGYNMARKFTLKELDEMVVGEITDKNDKNELLKMIKPVISSKKYGSEDILSELVSEAVSHVLPVAQQAGEIPYFNVDSIRVVKIMGGSLSNSTVIKGMVFNREPEGHVKSLSEDKKHKVAVFTCPLDIANTETKGTVLLHNAQEMLDFSKGEEKQIDAMMKEIADMGVECIVAGAGVGELALHYLNRYGILVLKVPSKFELRRLCRVCGATPLPRLGAPTPEELGLVETVKTMEIGGDRVTVFKQEQGEISRTSTIILRGATQNNLDDIERAIDDGVAAVKGLMKPSGGKLLPGAGATEIELISRITKYGERTPGLLQLAIKQFAVAFEVVPRTLAETAGLDVNEVLPNLYAAHNVTEPGAVKTDHLYKGVDIDGESDEGVKDIREENIYDMLATKKFAINVATEAATTVLSIDQIIMAKKAGGPRAPQGPRPGNWDQED
B8: yeast TRiC subunit CCT1 (natural protein)
chain: not shown

Experiments:
[1] = biological target: the molecule itself; assay: SEC + other: negative-staining electron microscopy
cryo-EM structure [2] = biological target: the molecule itself; assay: cryo-EM structure
[3] = biological target: the molecule itself; assay: negative-staining electron microscopy
cryo-EM structure [4] = biological target: the molecule itself; assay: cryo-EM structure; remark: listed apart in the source

| Protein | binding result [1] | stoichiometry N (cryo-EM structure [2]) | further results |
| --- | --- | --- | --- |
| B1 | binds |  |  |
| B2 |  | 8 subunits per ring (double ring) |  |
| B3 | binds |  |  |
| B4 | binds |  |  |
| B5 |  |  | binding result [3]: binds |
| B6 |  | 8 subunits per ring (double ring) and 9 subunits per ring (double ring) | stoichiometry N (cryo-EM structure [4]): 8 subunits per ring and 9 subunits per ring |
| B7 | binds |  |  |
| B8 |  | 8 subunits per ring (double ring) | stoichiometry N (cryo-EM structure [4]): 9 subunit pairs |
